Measurements taken from paper PMC5577655.

Tested on: NCCCC[C@H](N)C(=O)O
Test: purified protein

## lysyl-tRNA synthetase 1 (LdLysRS-1) (Leishmania donovani)
  Km: 111 ± 15 µM
